# Reference: US11111295B2, “Antibody for anti-claudin 18A2 and use thereof” (CAFA THERAPEUTICS LIMITED, priority 2016, dated 2021)
# T1: human CLD18A2 (Homo sapiens, UniProt P56856)
# T1 construct: expressed in transfected cells
# T1 sequence (P56856 1-261 isoform P56856-2): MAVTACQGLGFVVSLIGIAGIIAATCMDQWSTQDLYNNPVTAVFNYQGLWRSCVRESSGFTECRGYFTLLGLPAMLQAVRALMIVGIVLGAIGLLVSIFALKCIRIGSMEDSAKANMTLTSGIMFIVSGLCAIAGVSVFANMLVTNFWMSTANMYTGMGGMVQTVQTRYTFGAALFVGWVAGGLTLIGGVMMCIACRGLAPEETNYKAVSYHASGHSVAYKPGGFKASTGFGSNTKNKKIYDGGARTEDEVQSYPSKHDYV
# Key:
# [1] = molecular target: T1, human CLD18A2; assay: Flow cytometry binding of hybridoma supernatants to HEK293 cells stably transfected with human CLD18A2; conditions: hybridoma supernatant; most of subclones after two rounds of subcloning; HEK293 transfectants
# Excerpt: Individual cells were screened for anti-CLD18A2 monoclonal antibody by flow cytometry, and HEK293 cells (HEK-CLD18A2) stably expressing human CLD18A2 were used for primary screening by flow cytometry using a Guava easyCyte™ HT System instrument. The binding of the antibody to human CLD18A1 and CLD18A2 transformants was then compared by flow cytometry. The instrument used was the Guava easyCyte™ HT System.
# After multiple rounds of preparation and screening of hybridomas, the inventors found several antibodies with relatively ideal binding properties.
# [2] = molecular target: T1, human CLD18A2; assay: Flow cytometry binding of scFv_Fc fusion antibody to HEK293 cells stably transfected with human CLD18A2 (EC50); conditions: scFv fused to human IgG1 Fc portion, read-out: relative binding affinity EC50 value
# Procedure: Binding of anti-Claudin 18A2 scFv_Fc fusion antibody to HEK293 cells stably transfected with CLD18A2 was determined by flow cytometry. Experimental data was analyzed using GraphPad Prism and Guava easyCyte™ HT System instrument as described in Example 1 to obtain EC50 value.
# Expression vectors of ScFv Fc-form of the two mutants were constructed as described in Example 2, and according to the procedure of Example 2, and the experimental data was analyzed using GraphPad Prism and Guava easyCyte™ HT System instrument to obtain EC50.
# The binding activity assay was performed as described in Example 2, and experimental data was analyzed using HEK293 cells (HEK-CLD18A2) stably expressing human CLD18A2, GraphPad Prism and Guava easyCyte™ HT System instrument to obtain EC50, and the results are shown in FIG. 5.
# (5) The binding activity was tested, and experimental data was analyzed using HEK293 cells (HEK-CLD18A2) stably expressing human CLD18A2, GraphPad Prism and Guava easyCyte™ HT System instrument, and the results are shown in FIG. 6.
# The mutant hu8E5-2I of the humanized antibody hu8E5 was constructed as described in Example 3. Experimental data was analyzed using HEK293 cells (HEK-CLD18A2) stably expressing human CLD18A2, GraphPad Prism and Guava easyCyte™ HT System instrument, and the results are shown in FIG. 7.
binding to human CLD18A2 [1],EC50 [2],Molecule
specifically bound to human CLD18A2,,"4A11: murine anti-CLD18A2 monoclonal antibody, VH SEQ ID NO:11, VL SEQ ID NO:9 (antibody, V domains shown) VH: QIQLVQSGPELKKPGETVKISCKASGYTFTNYGMNWVKQAPGKGLKWMGWINTNTGEPTYAEEFKGRFAFSLETSASTAYLQINNLKNEDTATYFCARFSYGNSFAYWGQGTTVTVSS VL: DIVMTQSPSSLSVSAGEKVTMSCKSSQSLLNSGNQKNYLAWYQQKPGQPPKLLIYGASTRESGVPDRFTGSGSGTDFTLTISSVQAEDLAVYYCQNDHSYPLTFGAGTKLELKR"
specifically bound to human CLD18A2,,"3E12: murine anti-CLD18A2 monoclonal antibody, VH SEQ ID NO:7, VL SEQ ID NO:5 (antibody, V domains shown) VH: QVQLQQSGPELVKPGALVKISCKASGYTFTSYDINWVKQRPGQGLEWIGWIYPGDGSTKYNEKFKGKATLTADKSSSTAYMQLSSLTSENSAVYFCARGGYRYDEAMDYWGQGTTVTVSS VL: QIVLTQSPAIMSASPGEKVTMTCSASSSISYMHWYQQKPGTSPKRWIYDTSKLASGVPARFSGSGSGTSYSLTISSMEAEDAATYYCHQRSSYPYTFGGGTKLEIKR"
specifically bound to human CLD18A2,49.2 nM,"8E5: murine anti-CLD18A2 monoclonal antibody, VH SEQ ID NO:15, VL SEQ ID NO:13 (antibody, V domains shown) VH: DVQLQESGPDLVKPSQSLSLTCTVTGYSITSGYNWHWIRQFPGNKMEWMGYIHYTGSTNYNPSLRSRISITRDTSKNQFFLQLNSVTTDDTATYYCTRIYNGNSFPYWGQGTSVTVSS VL: DIVMTQSPSSLTVTPGEKVTMTCKSSQSLFNSGNQKNYLTWYQQRPGQPPKMLIYWASTRESGVPDRFTGSGSGTDFTLTISSVQAEDLAVFYCQNAYSFPYTFGGGTKLEIKR"
